We go through 20 molecules from patent US20200199241A1 (Chugai, published 2020).

The target of the test is T1, soluble human FcRn complexed with β2-microglobulin (human, UniProt P61769 21-119, limits assumed).
T1 construct: also called hFcRn
Nature of the test: Biacore SPR, pH 7.0.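 Further: test antibodies captured on a Protein L chip with human FcRn flowed over as analyte, KD obtained as the ratio of dissociation to association rate constants.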

Residue numbers refer to the chain shown, from its start.

T1 sequence (chain, as listed by the source limits assumed, chain 1 of 2): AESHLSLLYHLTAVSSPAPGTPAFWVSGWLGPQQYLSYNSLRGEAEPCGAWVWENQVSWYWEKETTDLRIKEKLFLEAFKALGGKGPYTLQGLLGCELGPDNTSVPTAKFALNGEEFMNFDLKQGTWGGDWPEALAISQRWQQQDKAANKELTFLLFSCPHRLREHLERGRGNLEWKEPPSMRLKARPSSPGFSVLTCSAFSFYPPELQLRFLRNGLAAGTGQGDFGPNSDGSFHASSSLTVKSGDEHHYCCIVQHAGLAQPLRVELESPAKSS
T1 sequence (P61769 21-119 limits assumed, chain 2 of 2): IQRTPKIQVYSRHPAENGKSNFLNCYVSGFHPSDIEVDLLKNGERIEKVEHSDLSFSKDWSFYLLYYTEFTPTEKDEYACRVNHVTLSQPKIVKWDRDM

B1: IgG1-F957 (antibody)
heavy: QVQLQESGPGLVKPSETLSLTCAVSGHSISHDHAWSWVRQPPGEGLEWIGFISYSGITNYNPSLQGRVTISRDNSKNTLYLQMNSLRAEDTAVYYCARSLARTTAMDYWGEGTLVTVSSASTKGPSVFPLAPSSKSTSGGTAALGCLVKDYFPEPVTVSWNSGALTSGVHTFPAVLQSSGLYSLSSVVTVPSSSLGTQTYICNVNHKPSNTKVDKKVEPKSCDKTHTCPPCPAPELLGGPSVFLFPPKPKDTLYISRTPEVTCVVVDVSHEDPEVKFNWYVDGVEVHNAKTKPREEQYNSTYRVVSVLTVLHQDWLNGKEYKCKVSNKALPAPIEKTISKAKGQPREPQVYTLPPSRDELTKNQVSLTCLVKGFYPSDIAVEWESNGQPENNYKTTPPVLDSDGSFFLYSKLTVDKSRWQQGNVFSCSVMHEALHYNVTQKSLSLSP
light: not shown
notes: EU numbering; copies: 2 + 2
As a reminder, the Kd is the concentration at which binding is half-saturated. Low values mean tighter binding, high ones weaker binding. The molecule B1 displayed a Kd of 0.77 µM.

B2: IgG1-F970 (antibody)
heavy: B1 heavy with S256G, N437H, V438Y
light: not shown
notes: EU numbering; copies: 2 + 2
For the molecule B2, the affinity, expressed as Kd, was 2.5 µM.

B3: IgG1-F990 (antibody)
heavy: B1 heavy with L237R, S241K, T309Q, V310P, Q313A, N437H
light: not shown
notes: EU numbering; copies: 2 + 2
B3: the Kd turned out to be 0.0094 µM.

B4: IgG1-F991 (antibody)
heavy: B1 heavy with L237R, S241K, N288E, T309Q, Q313A, N437H
light: not shown
notes: EU numbering; copies: 2 + 2
Take B4: the Kd stood at 0.013 µM.

B5: IgG1-F978 (antibody)
heavy: B1 heavy with S256Q, N437H, V438Y
light: not shown
notes: EU numbering; copies: 2 + 2
B5 returned a Kd of 1.3 µM.

B6: IgG1-F993 (antibody)
heavy: B1 heavy with T309Q, Q313A, N437H
light: not shown
notes: EU numbering; copies: 2 + 2
Molecule B6 registered a Kd of 0.038 µM.

B7: IgG1-F987 (antibody)
heavy: B1 heavy with P240D, T252V, T309Q, Q313A, N437H
light: not shown
notes: EU numbering; copies: 2 + 2
B7 yielded a dissociation constant (Kd) of 0.04 µM.

B8: IgG1-F971 (antibody)
heavy: B1 heavy with S256H, N437H, V438Y
light: not shown
notes: EU numbering; copies: 2 + 2
B8 gave a Kd of 2.6 µM.

B9: IgG1-F966 (antibody)
heavy: B1 heavy with S256A, N437H, V438Y
light: not shown
notes: EU numbering; copies: 2 + 2
With B9, binding was characterised by a dissociation constant (Kd) of 0.31 µM.

B10: IgG1-F994 (antibody)
heavy: B1 heavy with N327G, N437H, V438Y
light: not shown
notes: EU numbering; copies: 2 + 2
Consider B10, for which the affinity, expressed as Kd, was 0.28 µM.

B11: IgG1-F998 (antibody)
heavy: B1 heavy with K250Y, T252V, N437H
light: not shown
notes: EU numbering; copies: 2 + 2
In turn, B11 returned a Kd of 0.85 µM.

B12: IgG1-F997 (antibody)
heavy: B1 heavy with K250I, T252V, N437H
light: not shown
notes: EU numbering; copies: 2 + 2
The molecule B12 registered a Kd of 0.38 µM.

B13: IgG1-F996 (antibody)
heavy: B1 heavy with L237R, P240D, S241K, N437H
light: not shown
notes: EU numbering; copies: 2 + 2
On to B13, for which the Kd came to 0.13 µM.

B14: IgG1-F995 (antibody)
heavy: B1 heavy with L237R, P240D, S241K, N437H, V438Y
light: not shown
notes: EU numbering; copies: 2 + 2
Take B14: the Kd was determined as 0.29 µM.

B15: IgG1-F972 (antibody)
heavy: B1 heavy with S256I, N437H, V438Y
light: not shown
notes: EU numbering; copies: 2 + 2
As for B15, the Kd was determined as 0.26 µM.

B16: IgG1-F960 (antibody)
heavy: B1 heavy with N437R
light: not shown
notes: EU numbering; copies: 2 + 2
Molecule B16 returned a Kd of 0.8 µM.

B17: IgG1-F988 (antibody)
heavy: B1 heavy with P240D, T252V, N288E, N437H
light: not shown
notes: EU numbering; copies: 2 + 2
As to B17, the affinity, expressed as Kd, was 0.069 µM.

B18: IgG1-F989 (antibody)
heavy: B1 heavy with L237R, S241K, V310P, N437H
light: not shown
notes: EU numbering; copies: 2 + 2
In turn, B18 yielded a Kd of 0.014 µM.

B19: IgG1-F980 (antibody)
heavy: B1 heavy with S256V, N437H, V438Y
light: not shown
notes: EU numbering; copies: 2 + 2
In the case of B19, binding was characterised by a dissociation constant (Kd) of 0.18 µM.

B20: IgG1-F992 (antibody)
heavy: B1 heavy with L237R, S241K, T309Q, Q313A, M430I, N437H
light: not shown
notes: EU numbering; copies: 2 + 2
Turning to B20, the affinity, expressed as Kd, was 0.051 µM.
